These results are taken from the supplement of paper PMC7125110.

± gives the standard error. For some assays here: Variants at the floor of the assay were thinned out.

B1: glmS ribozyme (parent)
chain: AUAAAAGCGCCAGAACUACAGAAAUGUAGUUGACGAGGAGGAGGUUUAUCGAAUUUUCGGCGGAUGCCUCCAAA

What all share (conditions): with glucosamine-6-phosphate
In data set [1] the parent is B1. The data set is described as follows: kcat; higher = faster cleavage; RNA array. A digest of the protocol:
(§1)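 The measurements used barcoded ribozyme variants on sequenced MiSeq chips, transcribed in situ by E. coli RNA polymerase and tracked at 37 °C with a hybridised Cy3 probe. Glucosamine-6-phosphate, 40 μM to 10 mM in HEPES/KCl/Mg(OAc)2 buffer, was flowed in while tiles were imaged over ~14 h. Baseline-normalised signals, also normalised to non-cleaving reference variants, gave per-tile medians that were fit to one- or two-exponential decays for kobs. kcat and KM resulted from weighted Michaelis–Menten fits across concentrations.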

The variants in data set [2] derive from B1. The data set is described as follows: KM; higher = weaker cofactor use; RNA array. The essentials: as §1
Data set [3] covers variants of B1. The data set is described as follows: self-cleavage kobs at 40 uM GlcN6P; higher = faster cleavage; RNA array. A digest of the protocol:
as §1

Variants of B1 are the subject of data set [4]. The data set is described as follows: self-cleavage kobs at 160 uM GlcN6P; higher = faster cleavage; RNA array. The essentials:
as §1

Variants of B1 are the subject of data set [5]. The data set is described as follows: self-cleavage kobs at 640 uM GlcN6P; higher = faster cleavage; RNA array. A digest of the protocol: as §1
The variants in data set [6] derive from B1. The data set is described as follows: self-cleavage kobs at 2500 uM GlcN6P; higher = faster cleavage; RNA array. A digest of the protocol: as §1
The variants in data set [7] derive from B1. The data set is described as follows: self-cleavage kobs at 10000 uM GlcN6P; higher = faster cleavage; RNA array. A digest of the protocol: as §1

With G32U U55A, the kcat (as a rule, the maximal rate divided by the concentration of active sites) with glucosamine-6-phosphate [1] came to 0.00193 ± 0.00061 s⁻¹. Further, the KM (commonly the concentration of substrate that gives half-maximal velocity) with glucosamine-6-phosphate [2] is 9310 ± 4500 µM. For the same variant, in the data set with glucosamine-6-phosphate [3], the “self-cleavage kobs at 40 uM GlcN6P” value is 2.84e-05 ± 1e-05 s⁻¹. In addition, in the data set with glucosamine-6-phosphate [4], the “self-cleavage kobs at 160 uM GlcN6P” value is 4.22e-05 ± 1.4e-05 s⁻¹. The “self-cleavage kobs at 640 uM GlcN6P” value with glucosamine-6-phosphate [5] was 0.000132 ± 2e-05 s⁻¹. Further, the “self-cleavage kobs at 2500 uM GlcN6P” value with glucosamine-6-phosphate [6] turned out to be 0.000332 ± 5.9e-05 s⁻¹. In addition, the “self-cleavage kobs at 10000 uM GlcN6P” value with glucosamine-6-phosphate [7] is 0.00102 ± 8.2e-05 s⁻¹.

In the case of U31C U55G, the kcat with glucosamine-6-phosphate [1] stood at 0.0059 ± 0.0019 s⁻¹. In addition, the KM in the data set with glucosamine-6-phosphate [2] turned out to be 2750 ± 1200 µM. For the same variant, the “self-cleavage kobs at 40 uM GlcN6P” value with glucosamine-6-phosphate [3] was found to be 0.000126 ± 1.5e-05 s⁻¹. In addition, the “self-cleavage kobs at 160 uM GlcN6P” value in the data set with glucosamine-6-phosphate [4] amounted to 0.000291 ± 3.8e-05 s⁻¹. In addition, the “self-cleavage kobs at 640 uM GlcN6P” value in the data set with glucosamine-6-phosphate [5] was determined as 0.00104 ± 0.00018 s⁻¹. For the same variant, the “self-cleavage kobs at 2500 uM GlcN6P” value in the data set with glucosamine-6-phosphate [6] was determined as 0.0022 ± 0.00033 s⁻¹. Moreover, in the data set with glucosamine-6-phosphate [7], the “self-cleavage kobs at 10000 uM GlcN6P” value was 0.00547 ± 0.00061 s⁻¹.

For the variant U31A C50A, the catalytic constant (kcat) with glucosamine-6-phosphate [1] came out at 1.34e-05 ± 6.2e-07 s⁻¹. Further, the KM in the data set with glucosamine-6-phosphate [2] is 605 ± 190 µM. Besides, in the data set with glucosamine-6-phosphate [3], the “self-cleavage kobs at 40 uM GlcN6P” value is less than 1e-05 s⁻¹. Besides, in the data set with glucosamine-6-phosphate [4], the “self-cleavage kobs at 160 uM GlcN6P” value is less than 1e-05 s⁻¹. The “self-cleavage kobs at 640 uM GlcN6P” value with glucosamine-6-phosphate [5] is less than 1e-05 s⁻¹.

With C16U U46G, the catalytic constant (kcat) in the data set with glucosamine-6-phosphate [1] amounted to 0.00589 ± 0.00074 s⁻¹. Besides, in the data set with glucosamine-6-phosphate [2], the Michaelis-Menten constant (KM) was found to be 1810 ± 320 µM. Further, the “self-cleavage kobs at 40 uM GlcN6P” value with glucosamine-6-phosphate [3] turned out to be 0.00014 ± 1.3e-05 s⁻¹. Besides, in the data set with glucosamine-6-phosphate [4], the “self-cleavage kobs at 160 uM GlcN6P” value came to 0.000489 ± 8.8e-05 s⁻¹. In addition, in the data set with glucosamine-6-phosphate [5], the “self-cleavage kobs at 640 uM GlcN6P” value is 0.00131 ± 0.00016 s⁻¹. In the data set with glucosamine-6-phosphate [6], the “self-cleavage kobs at 2500 uM GlcN6P” value worked out at 0.00323 ± 0.0005 s⁻¹. Also, in the data set with glucosamine-6-phosphate [7], the “self-cleavage kobs at 10000 uM GlcN6P” value is 0.00531 ± 0.00055 s⁻¹.

As to G29A G32A C71A, the catalytic constant (kcat) with glucosamine-6-phosphate [1] was 0.000259 ± 0.00011 s⁻¹. Further, the “self-cleavage kobs at 640 uM GlcN6P” value with glucosamine-6-phosphate [5] was 6.03e-05 ± 2.6e-05 s⁻¹. In the data set with glucosamine-6-phosphate [7], the “self-cleavage kobs at 10000 uM GlcN6P” value was found to be 0.000201 ± 4.4e-05 s⁻¹.

C10U A64G: the kcat with glucosamine-6-phosphate [1] is 3.72e-05 ± 4.4e-06 s⁻¹. Moreover, in the data set with glucosamine-6-phosphate [6], the “self-cleavage kobs at 2500 uM GlcN6P” value worked out at 3.75e-05 ± 5.1e-06 s⁻¹. In addition, in the data set with glucosamine-6-phosphate [7], the “self-cleavage kobs at 10000 uM GlcN6P” value came to 3.21e-05 ± 5.8e-06 s⁻¹.

As for G13U C71A, the kcat with glucosamine-6-phosphate [1] came out at 0.000178 ± 1.7e-05 s⁻¹. The KM with glucosamine-6-phosphate [2] was determined as 1130 ± 300 µM. In the data set with glucosamine-6-phosphate [5], the “self-cleavage kobs at 640 uM GlcN6P” value amounted to 5.95e-05 ± 1.2e-05 s⁻¹. Besides, in the data set with glucosamine-6-phosphate [6], the “self-cleavage kobs at 2500 uM GlcN6P” value was 0.000151 ± 2.5e-05 s⁻¹. Further, the “self-cleavage kobs at 10000 uM GlcN6P” value in the data set with glucosamine-6-phosphate [7] is 0.000154 ± 1.8e-05 s⁻¹.

As to U45C U65G, the kcat with glucosamine-6-phosphate [1] came out at 0.000191 ± 3.7e-05 s⁻¹. Besides, in the data set with glucosamine-6-phosphate [2], the KM worked out at 1810 ± 840 µM. The “self-cleavage kobs at 640 uM GlcN6P” value with glucosamine-6-phosphate [5] turned out to be 4.57e-05 ± 9.8e-06 s⁻¹. The “self-cleavage kobs at 2500 uM GlcN6P” value in the data set with glucosamine-6-phosphate [6] was 0.000188 ± 4e-05 s⁻¹. Also, in the data set with glucosamine-6-phosphate [7], the “self-cleavage kobs at 10000 uM GlcN6P” value was 0.000154 ± 2e-05 s⁻¹.

In the case of A53C U55G, in the data set with glucosamine-6-phosphate [1], the kcat amounted to 0.00572 ± 0.0016 s⁻¹. Besides, the KM with glucosamine-6-phosphate [2] is 1640 ± 730 µM. Besides, in the data set with glucosamine-6-phosphate [3], the “self-cleavage kobs at 40 uM GlcN6P” value came out at 0.000162 ± 2.2e-05 s⁻¹. The “self-cleavage kobs at 160 uM GlcN6P” value with glucosamine-6-phosphate [4] turned out to be 0.000551 ± 9.1e-05 s⁻¹. For the same variant, in the data set with glucosamine-6-phosphate [5], the “self-cleavage kobs at 640 uM GlcN6P” value stood at 0.00138 ± 0.00025 s⁻¹. In the data set with glucosamine-6-phosphate [6], the “self-cleavage kobs at 2500 uM GlcN6P” value came out at 0.00261 ± 0.00039 s⁻¹. The “self-cleavage kobs at 10000 uM GlcN6P” value in the data set with glucosamine-6-phosphate [7] is 0.00667 ± 0.00076 s⁻¹.

With G37A A53C C71U, in the data set with glucosamine-6-phosphate [1], the kcat was found to be 9.8e-05 ± 3.3e-06 s⁻¹. Moreover, the Michaelis-Menten constant (KM) in the data set with glucosamine-6-phosphate [2] worked out at 1010 ± 85 µM. In addition, the “self-cleavage kobs at 640 uM GlcN6P” value in the data set with glucosamine-6-phosphate [5] worked out at 3.79e-05 ± 1.4e-05 s⁻¹. In the data set with glucosamine-6-phosphate [6], the “self-cleavage kobs at 2500 uM GlcN6P” value was determined as 6.98e-05 ± 1.5e-05 s⁻¹.

On to U30A G59A, for which the kcat with glucosamine-6-phosphate [1] was found to be 3.04e-05 ± 2.1e-06 s⁻¹. Besides, the KM in the data set with glucosamine-6-phosphate [2] amounted to 2080 ± 490 µM. The “self-cleavage kobs at 40 uM GlcN6P” value with glucosamine-6-phosphate [3] is less than 1e-05 s⁻¹. Also, the “self-cleavage kobs at 10000 uM GlcN6P” value with glucosamine-6-phosphate [7] was found to be 2.5e-05 ± 1.2e-05 s⁻¹.

On to A15U C68A, for which the kcat with glucosamine-6-phosphate [1] turned out to be 2.71e-05 ± 1e-05 s⁻¹. In the data set with glucosamine-6-phosphate [6], the “self-cleavage kobs at 2500 uM GlcN6P” value came out at 3.7e-05 ± 1.7e-05 s⁻¹.

As to A14G U31A C67G, in the data set with glucosamine-6-phosphate [1], the kcat was found to be 0.00052 ± 0.00021 s⁻¹. Further, the “self-cleavage kobs at 160 uM GlcN6P” value with glucosamine-6-phosphate [4] was determined as 0.000163 ± 3.6e-05 s⁻¹. Also, in the data set with glucosamine-6-phosphate [5], the “self-cleavage kobs at 640 uM GlcN6P” value came to 0.000237 ± 6e-05 s⁻¹. The “self-cleavage kobs at 2500 uM GlcN6P” value with glucosamine-6-phosphate [6] is 0.000368 ± 0.00011 s⁻¹. Moreover, the “self-cleavage kobs at 10000 uM GlcN6P” value with glucosamine-6-phosphate [7] was 0.000966 ± 0.0003 s⁻¹.

As for U54A U56A, in the data set with glucosamine-6-phosphate [1], the kcat came to 0.0109 ± 0.0014 s⁻¹. The KM with glucosamine-6-phosphate [2] was 2140 ± 380 µM. The “self-cleavage kobs at 40 uM GlcN6P” value in the data set with glucosamine-6-phosphate [3] was determined as 0.00022 ± 4e-05 s⁻¹. In addition, the “self-cleavage kobs at 160 uM GlcN6P” value in the data set with glucosamine-6-phosphate [4] turned out to be 0.000706 ± 0.0002 s⁻¹. Besides, the “self-cleavage kobs at 640 uM GlcN6P” value with glucosamine-6-phosphate [5] turned out to be 0.00224 ± 0.00048 s⁻¹. For the same variant, in the data set with glucosamine-6-phosphate [6], the “self-cleavage kobs at 2500 uM GlcN6P” value is 0.00712 ± 0.002 s⁻¹. Moreover, in the data set with glucosamine-6-phosphate [7], the “self-cleavage kobs at 10000 uM GlcN6P” value came out at 0.00887 ± 0.0017 s⁻¹.
